The results in this text go back to publication PMC6719061.

For assay [1], the target named is Lst-ABD, recombinant fusion protein with lysostaphin at the N-terminus and the albumin-binding domain from streptococcal protein G at the C-terminus (not stated | Streptococcus sp.).
Assay [2] has the same target. The assay is described as follows: photonic crystal-based biosensor (EVA 2.0); Lst-ABD immobilised covalently by amine coupling (EDC/NHS) on a carboxylate-derivatized photonic crystal chip; albumin in PBST (PBS + 0.02% Tween-20, pH 7.4) pumped through the flow cell, ~5 min association, ~5 min dissociation; RSA 250, 42, 7 and 1.2 µg/mL, BSA 1 mg/mL; heterogeneous binding model with two independent sites, koff1 = koff2 fixed.

Take “rat serum albumin (from UniProt P02770 25-608) (natural protein)”: the rate of clearing of S. aureus ATCC 29213 cell suspension (turbidimetry, OD 550 nm) by Lst-ABD in the presence of 100 µg/mL RSA, relative to lysostaphin in assay [1] was determined as 25%. Further, in assay [2], the KD1 (high-affinity site) was 2.3 nM, the KD2 (low-affinity site) was 20 nM, the off-rate (koff) was found to be 5.9e-05 s⁻¹ and the kon1 (high-affinity site) came out at 26000 M⁻¹ s⁻¹. Further, the kon2 (low-affinity site) in assay [2] is 3000 M⁻¹ s⁻¹.

In general, koff refers to the rate constant with which the complex falls apart.
